Measured values reported in the supplement of paper PMC9170038.

Tested on: K4 kissing-loop RNA reporter
Assay: apparent KD of K4 kissing-loop reporter; higher = weaker reporter binding
Conditions: Eterna round: R107
Experimental: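 RNA-MaP round R107: designed RNA switches with theophylline, tryptophan, arginine or FMN aptamers are transcribed on-chip within common flanks. They are titrated with a labelled K4 kissing-loop RNA reporter in RNA-MaP buffer (100 mM Tris pH 7.5, 80 mM KCl, 4 mM MgCl2), without ligand or with the indicated ligand. Median apparent KD per design.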

[1] = input ligand: theophylline 20 uM
[2] = input ligand: tryptophan 2.4 mM
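Note: bound reporter read as fluorescence of individual clusters on recovered sequencing chips by microscopy, with normalized cluster intensities fitted with a binding model.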

Sequence | apparent KD of K4 kissing-loop reporter (input ligand: FMN 200 uM) [nM] | apparent KD of K4 kissing-loop reporter (input ligand: arginine 13.2 mM) [nM] | apparent KD of K4 kissing-loop reporter (input ligand: none) [nM] | apparent KD of K4 kissing-loop reporter [1] [nM] | apparent KD of K4 kissing-loop reporter [2] [nM]
ACUGAGCAUGCGGCCGCCACUUCAGAACGUCGCCCAAAGGGCGACGCCUCCAGAGUGAUGUUCUGGAGGACCGGGCAUGUUCAGA [Omei KL Tryp B Exc A v1] | 540 | 300 | 506 | 450 | 112
ACUGAGUUGACGAAAGUCAACAAUUGAGAAGGAGCGCACGAAAGUGCAGGUAGGUCGCUCAGUCCAGUGAUGUUGGAUCAUCAGA [#17 K4 Arginine A Same State] | 324 | 558 | 383 | 478 | 275
AGAAGAGUGAUGUUCUUCUAUAUCUCAGAAGGAGCGACAUAAAUGUCAGGUAGGUCGCUGAGAUGAAAUCUCACACAGAUCUUGG [Arg A SS t8] | 127 | 149 | 154 | 182 | 109
AGACGAGAUGAAGGAUAUGCGGACAAAGUGAUGUUUUGUCCGAAAGUAGGCAGUAAUAUCGAAAAUGCAGAAGGUCAAGAACAUA [theeternabot_exclusion_KL_FMN_B_36] | 135 | 173 | 143 | 256 | 145
AGACUACCAACACUGUCAAUAGACAGUGACUAGGAUAUGCUGAUAAGCAGAAGGAGUGAUGUUCCUAAUAGAAAGGUAGUCAAAU [FmnAX 17 #SwitchBubble #StaticStem #K4Early] | 294 | 237 | 252 | 222 | 219
AGACUACCACACUGUCAAUAGACAGUGAACUAGGAUAUGCUGAUAAGCAGAAGGAGUGAUGUUCCCAGGUAGUCAAUAAAAUAAU [FmnAX 13 C66] | 170 | 185 | 231 | 331 | 223
AGACUACCACACUGUCAAUAGACAGUGAACUAGGAUAUGCUGAUAAGCAGAAGGAGUGAUGUUCCUAAAGGUAGUCAAAUAUAAU [FmnAX 14 #SwitchBubble #StaticStem #K4Early] | 335 | 380 | 380 | 567 | 351
AGACUACCACACUGUCAAUAGACAGUGAGCUAGGAUAUGCUGAUAAGCAGAAGGAGUGAUGUUCCCAGGUAGUCAAUAAAAUAAU [FmnAX 13 G29+C66] | 272 | 192 | 231 | 302 | 238
AGACUACCACACUGUCAAUAGACAGUGAGCUAGGAUAUGCUGAUAAGCAGAAGGAGUGAUGUUCCUGGGUAGUCAAUAAAAUAAU [FmnAX 13 G29+G67] | 399 | 349 | 362 | 441 | 342
AGACUAUCGUCAAAGACGGUAGUCAAAAGUGAGGAUAUAGUGAUGUUUAGAAGGCACUAAGACUGUAUCGAAUAGAUACGGUCAA [FmnA 1 #K4BetweenAptamer #OpenEnded] | 2120 | 1320 | 2120 | 1250 | 1920
AGACUUCACCGAAGGAGCGACGUAGCCUAGUGAUGUUAGGCAAGAGAGAAAUCUCUUAUACGUCAGGUAGGUCGCGGUGAAGUCA [Omei KL Arginine B SS C v2] | 197 | 118 | 162 | 160 | 150
AGACUUCACCGAAGGAGCGACGUGGCCUAGUGAUGUUAGGCACGAGAGAAAUCUCGUAUACGUCAGGUAGGUCGCGGUGAAGUCA [Omei KL Arginine B SS C v6] | 204 | 142 | 165 | 160 | 180
AGACUUCACCGAAGGAGCGACGUGGUCUAGUGAUGUUAGACACGAGAGAAAUCUCGUAUACGUCAGGUAGGUCGCGGUGAAGUCA [Omei KL Arginine B SS C v9] | 147 | 119 | 146 | 117 | 133
AGAGAUAAGGCGGCCGCCACUAAGAUGAAACUAACGGUCAAGUGAUGUUUGCGGUUACAGUUCAGUAGGACCGGGCCGAGUAAAU [theeternabot_sameState_KL_Trp_B_47] | 512 | 403 | 407 | 412 | 357
AGAGAUAUAUGAGGAUAUGAGAUAGUUAAUGAGUGAGUUAUAGUGUAGUUUGGUUAGUGAUGUUAUUUAGAAGGCGUGAGUGAUG [reefmullin] | 140 | 76.7 | 131 | 107 | 83.3
AGAGUACGAAAGUACUCCUCUACACACUGUCGAGGACCGGUACGGCCGCCACUCGAGUUGAGUGAUGUUCGAUAGUGUGUAGAGA [Omei KL Tryp A SS C v4] | 66.4 | 57.3 | 30 | 104 | 142
AGAGUUAUAUGAGGAUAUGGGAUAGUAAAUGAGUGAGUUAUAGUGUAGUUUGUUUAGUGAUGUUAUUUAGAAGGCGUGAGUGAUG [dgnnmullin] | 193 | 114 | 100 | 113 | 86.4
AGAGUUUUAUGAGGAUAUGAGAUAGUUAAUGAGUGAGUUAUAGUGUAGUUUGUUUAGUGAUGUUAUUUAGAAGGCGUGAGUGAUG [ssxsmullin] | 151 | 95.9 | 122 | 132 | 84.4
AGAUGUUUAGCUCAAAGAACGAAAAUGGAAGGAGCGUGCGAAAGCACAGGUAGGUCGCCAGUGAUGUUGGAACCUGAGCAUCAAA [#SwitchBubble 16 #K4Late] | 316 | 274 | 262 | 244 | 230
AGCAGUCACUCGAAAACCAUCGAAGAUGGACGAGGACCGGUACGGCCGCCACUCGGAGUGAUGUUCCGAAGACUGCAAAAUAAAA [#SwitchBubble 16] | 380 | 402 | 433 | 346 | 435
AGCCACGACGCGGCCGCCACUGCCAUUAAACGUAAGGCAAAUCUAAUCUUCGAGUGAUGUUCGGGCAGGACCGGGCGGAGACUUG [theeternabot_sameState_KL_Trp_B_18] | 636 | 300 | 478 | 772 | 371

Sequence | apparent KD of K4 kissing-loop reporter (input ligand: FMN 200 uM) [nM] | apparent KD of K4 kissing-loop reporter (input ligand: arginine 13.2 mM) [nM] | apparent KD of K4 kissing-loop reporter (input ligand: none) [nM] | apparent KD of K4 kissing-loop reporter [1] [nM] | apparent KD of K4 kissing-loop reporter [2] [nM]
AGCCGAAAGGCGAGUGCUGUCACUCCGGAAGGAGCGCUCAAAAGAGCAGGUAGGUCGCCGGAGUGAUGUUCCGGUGCAGCACUCA [Omei KL Arginine A Exc B v4] | 594 | 408 | 580 | 751 | 623
AGCGCUGCCUGAGGAUAUAGAGACGAGUGAUGUUCGUGGAUUGAUACCAGUGAUGUUGGUCUAUUUCUAGAAGGCAGGCGAUCGU [Exclusion FMN B GF 3] | 131 | 85.6 | 103 | 105 | 103
AGCGUCCCUACGGCCGCCACUGGGAGUGAUGUUCCCAGGUUAGGCCUGAGGAUACUAUGGAUCGCCAGGACCGGGUAGCGACCAA [Zaarin] | 93.4 | 71.8 | 85.4 | 97.2 | 83.5
AGCUCAGAGUGACUCGAUAAGAGUCACAAACGAGGACCGGUACGGCCGCCACUCGAAAUAAUGAGAGUGAUGUUCUCGCUGAGCA [#SwitchBubble 2 #StaticStem #K4Late] | 221 | 98.6 | 89 | 145 | 793
AGGAGUGAUGUUCCUACAUACACGGUCCGACGAGGACCGGUACGGCCGCCACUCGCGUCCCAGUGAUGUUGGGAUUUGGCGUACG [Exclusion Tryptophan A GF 17] | 162 | 155 | 155 | 171 | 154
AGGAUAUAGUGAUGUUAUAUAAGAAGAAAACGAGGACCGGUACGGCCGCCACUCGAAGCGGCUACUAAGAGGGAAAGAAGAGGAA [ExTryptoA.A] | 174 | 181 | 215 | 294 | 143
AGGAUCCGUCGACAAAAGUCGACAUAAACCGAGGAUAUGACGAAAGUCAGAAGGUGGUCAUAAGACCAGUGAUGUUGGUGGAUCC [FmnA 14 #SwitchBubble #K4Late] | 1250 | 282 | 494 | 318 | 305
AGGAUGUAGUGAUGUUAUAUAAGAAGUAAACGAGGACCGGUACGGCCGCCACUCGAAACGGCUACUAGCGCGUUGCGAGGUGUGC [ExTryptoA.Cf] | 425 | 475 | 808 | 510 | 402
AGGAUGUAGUGAUGUUAUAUAAGAAGUAAACGAGGACCGGUACGGCCGCCACUCGAAGCGGCUACUAGCGUGUUGCGAGGUGCGC [ExTryptoA.Cd] | 370 | 324 | 229 | 230 | 197
AGGCACGAGCAAGGAUAUCGAGUAGAGUGAUGUUCUGCCUGGGUUGGCUCGGAAGGGCCUUCCCAGCGAGAAGGUGCUCGUGCCU [#2 Same State - FMN A Attempt #16 (HarryS)] | 189 | 637 | 590 | 674 | 493
AGGCACGAGCAAGGAUAUCGAGUAGAGUGAUGUUCUGCCUGGGUUGGCUCGUAAGAGCCUUCUCAGCGAGAAGGUGCUCGUGCCU [#2 Same State - FMN A Attempt #20 (HarryS)] | 217 | 511 | 544 | 511 | 944
AGGCGGCAUAAUUGACUGAAAAGAAAUUAACGAGGACCGGUACGGCCGCCACUCGAACACCAGUGAUGUUGGUAUGGGAUAAUUU [Exclusion Tryptophan A GF 18] | 91.6 | 62.7 | 52.9 | 169 | 47
AGGGAACGCACGGAUACCAGACUCAUAGUGAUGUUGUGGGUAUAAAUUAGCGCAUACACAGUCCCUUGGCAGCCGCUGAAUGGCC [theeternabot_exclusion_KL_Theo_B_1] | 829 | 644 | 971 | 835 | 505
AGGGACUCUUCGGAGUCCCGGUCAAGGGAUACCAGUGAUGUUGGUCACCCUUGGCAGCCCAGAAACCAAGCCACCAAAGGUGGCA [Omei KL Theo A Exc A v3] | 117 | 97.9 | 97.3 | 103 | 107
AGUACAAUGGCGGCCGCCACUCAACGCAGAUCAAAGAUCUGCGAUCACUCAGUGAUGUUGAGUGAGAGGACCGGGCCUUUGUACA [Omei KL Tryp B SS B v6] | 354 | 272 | 307 | 311 | 135
AGUACAAUGGCGGCCGCCACUCAACGCAGAUCAAAGAUCUGCGUUCACUCAGUGAUGUUGAGUGAGAGGACCGGGCCUUUGUACA [Omei KL Tryp B SS B v5] | 221 | 180 | 190 | 170 | 141
AGUAGUUGGGCGGCCGCCACUGGAACAGCUUUGUCAAAGACAGAGCACUAGAGUGAUGUUCUAGCUAGGACCGGGUCCAACUACA [whbob_SS_Tryp_B_t17] | 460 | 206 | 533 | 503 | 991
AGUAUGUAAUAUGGCAUAUUUAGAACUGAAGGAGCGCCGAAUAAGGCAGGUAGGUCGCGGUUUUAUGAGUGAUGUUCUUGUUUAA [KL-SSArg-A24] | 156 | 125 | 149 | 329 | 111
AGUCCACUCUAAAGAGUGGACCUAAGGGAUACCAGUGAUGUUGGUCACCCUUGGCAGCCCGCUGUCAUCGAUAAAGAUGGCAGAA | 136 | 121 | 120 | 147 | 120
AGUGAUGUAUGGCGGUGUGUCACUUAAAAUCAGGAUAUAUAAACAAAUAGAAGGGAUGGCGGAGUGAUGUUCCGCCGGCCGCCAU [FMN A Exl V2] | 173 | 147 | 157 | 165 | 159
AGUGCUAUGACGGCCGCCACUGAUUACCAGUGAUGUUGGUAGUCCAUUUACGACUUCCUGAUAACCAGGACCGGGUCAUAGGUCG [Tryp B Ex t2] | 702 | 613 | 807 | 450 | 201
